Experimental data published in patent US20230405119A1 (published 2023).

Target: IL13ra2-Fc
Assay: yeast display flow cytometry titration

| Kd | Binder |
| --- | --- |
| 480 nM | RLK (ligand) GPVPPSTALRRLIEELVNITQNQKAPLCNGSMVWSINLTAGMYCAALESLINVSGCSAIEKTQRMLSGFCPHKVSAGQFSSLHVRDTKILVAQFVKDLLLHLKKLFKEGRFN |
| 200 nM | YLK (ligand) GPVPPSTALRYLIEELVNITQNQKAPLCNGSMVWSINLTAGMYCAALESLINVSGCSAIEKTQRMLSGFCPHKVSAGQFSSLHVRDTKILVAQFVKDLLLHLKKLFKEGRFN |
